{"source": "patent US20240024426A1", "about": "“HYPOTENSIVE PHARMACEUTICAL COMPOSITION COMPRISING TRIPLE ACTIVATOR HAVING ACTIVITY FOR ALL OF GLUCAGON, GLP-1, AND GIP RECEPTORS” (HANMI PHARM. CO., LTD., priority 2020, published 2024)", "binders": {"B1": {"name": "Triple agonist of SEQ ID NO: 71 (peptide)", "peptide": "Y[Aib]QGTFTSDYSKYLDERACKDFVQWLLDHHPSSGQPPPS", "modifications": "bridge 16-20"}, "B2": {"name": "Triple agonist of SEQ ID NO: 74 (peptide)", "peptide": "{Acetyl(2-(4-imidazolyl))}-[Aib]QGTFTSDYSKCLDEKRAKEFVQWLLDHHPSSGQPPPS", "modifications": "bridge 15-19"}, "B3": {"name": "Triple agonist of SEQ ID NO: 73 (peptide)", "peptide": "{Acetyl(2-(4-imidazolyl))}-[Aib]QGTFTSDYSKYLDECRAKEFVQWLLDHHPSSGQPPPS", "modifications": "bridge 15-19"}, "B4": {"name": "Triple agonist of SEQ ID NO: 69 (peptide)", "peptide": "Y[Aib]QGTFTSDYSKCLDERAAKEFVQWLLDHHPSSGQPPPS", "modifications": "bridge 16-20"}, "B5": {"name": "Triple agonist of SEQ ID NO: 8 (peptide)", "peptide": "H[Aib]QGTFTSDVSKYLDGQAAQEFVAWLLKGC"}, "B6": {"name": "Triple agonist of SEQ ID NO: 80 (peptide)", "peptide": "H[Aib]EGTFTSDYSIAMDEIHQKDFVDWLLAEKC", "modifications": "bridge 16-20"}, "B7": {"name": "Triple agonist of SEQ ID NO: 77 (peptide)", "peptide": "Y[Aib]QGTFTSDYSKYLDEKAAKDFVQWLLDHHPSSGQPPPSC", "modifications": "bridge 16-20"}, "B8": {"name": "Triple agonist of SEQ ID NO: 81 (peptide)", "peptide": "{Acetyl(2-(4-imidazolyl))}-[Aib]QGTFTSDYSKYLDEKRQKEFVQWLLNTC", "modifications": "bridge 15-19"}, "B9": {"name": "Triple agonist of SEQ ID NO: 68 (peptide)", "peptide": "Y[Aib]QGTFTSDYSKCLDEKAAKEFVQWLLDHHPSSGQPPPS", "modifications": "bridge 16-20"}, "B10": {"name": "Triple agonist of SEQ ID NO: 63 (peptide)", "peptide": "{Acetyl(2-(4-imidazolyl))}-[Aib]QGTFTSDCSKYLDERAAQDFVQWLLDGGPSSGAPPPS"}, "B11": {"name": "Triple agonist of SEQ ID NO: 65 (peptide)", "peptide": "H[Aib]QGTFTSDYSKCLDEKRAKEFVQWLLDHHPSSGQPPPS", "modifications": "bridge 16-20"}, "B12": {"name": "Triple agonist of SEQ ID NO: 72 (peptide)", "peptide": "Y[Aib]QGTFTSDCSKYLDERAAKDFVQWLLDHHPSSGQPPPS", "modifications": "bridge 16-20"}, "B13": {"name": "Triple agonist of SEQ ID NO: 62 (peptide)", "peptide": "{Acetyl(2-(4-imidazolyl))}-[Aib]QGTFTSDKSKYLDERAAQDFVQWLLDGGPSSGAPPPS"}}, "note": "Bridges are numbered along the chain shown (N, C = ends). Where no end group is shown, it is not given here. [ ]: non-standard residue; d: D form. The star is where a group is joined. Acetyl(2-(4-imidazolyl)) = O=C(Cc1c[nH]cn1)*; Aib = CC(C)(N)C(=O)O"}
{"target": "T1, human GIP receptor (human, UniProt P48546 22-466)", "T1 sequence (looked up)": "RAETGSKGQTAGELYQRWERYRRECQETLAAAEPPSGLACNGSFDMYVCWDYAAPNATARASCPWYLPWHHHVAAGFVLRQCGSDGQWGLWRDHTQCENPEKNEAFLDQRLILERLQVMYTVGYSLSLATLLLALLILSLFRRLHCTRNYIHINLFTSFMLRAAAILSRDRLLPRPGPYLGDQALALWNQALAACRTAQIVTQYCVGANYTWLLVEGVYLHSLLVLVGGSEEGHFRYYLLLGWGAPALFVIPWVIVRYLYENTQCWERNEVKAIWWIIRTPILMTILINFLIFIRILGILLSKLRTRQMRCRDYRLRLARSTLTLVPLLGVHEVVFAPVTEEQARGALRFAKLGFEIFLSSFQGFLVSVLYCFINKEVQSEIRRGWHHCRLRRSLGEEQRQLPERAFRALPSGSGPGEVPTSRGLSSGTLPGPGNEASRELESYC", "experiment": "cell-based or functional assay", "units": {"In vitro activity compared with native peptide (%) vs. GIP": "%"}}
{"binder": "B1", "In vitro activity compared with native peptide (%) vs. GIP": 94.7}
{"binder": "B2", "In vitro activity compared with native peptide (%) vs. GIP": 1}
{"binder": "B3", "In vitro activity compared with native peptide (%) vs. GIP": 3}
{"binder": "B4", "In vitro activity compared with native peptide (%) vs. GIP": 62.8}
{"binder": "B5", "In vitro activity compared with native peptide (%) vs. GIP": "< 0.1"}
{"binder": "B6", "In vitro activity compared with native peptide (%) vs. GIP": 0.1}
{"binder": "B7", "In vitro activity compared with native peptide (%) vs. GIP": 35.5}
{"binder": "B8", "In vitro activity compared with native peptide (%) vs. GIP": "< 0.1"}
{"binder": "B9", "In vitro activity compared with native peptide (%) vs. GIP": 107}
{"binder": "B10", "In vitro activity compared with native peptide (%) vs. GIP": "< 0.1"}
{"binder": "B11", "In vitro activity compared with native peptide (%) vs. GIP": 11.6}
{"binder": "B12", "In vitro activity compared with native peptide (%) vs. GIP": 1.6}
{"binder": "B13", "In vitro activity compared with native peptide (%) vs. GIP": "< 0.1"}
{"target": "human GCG receptor (human, UniProt P47871 26-477)", "sequence (P47871 26-477)": "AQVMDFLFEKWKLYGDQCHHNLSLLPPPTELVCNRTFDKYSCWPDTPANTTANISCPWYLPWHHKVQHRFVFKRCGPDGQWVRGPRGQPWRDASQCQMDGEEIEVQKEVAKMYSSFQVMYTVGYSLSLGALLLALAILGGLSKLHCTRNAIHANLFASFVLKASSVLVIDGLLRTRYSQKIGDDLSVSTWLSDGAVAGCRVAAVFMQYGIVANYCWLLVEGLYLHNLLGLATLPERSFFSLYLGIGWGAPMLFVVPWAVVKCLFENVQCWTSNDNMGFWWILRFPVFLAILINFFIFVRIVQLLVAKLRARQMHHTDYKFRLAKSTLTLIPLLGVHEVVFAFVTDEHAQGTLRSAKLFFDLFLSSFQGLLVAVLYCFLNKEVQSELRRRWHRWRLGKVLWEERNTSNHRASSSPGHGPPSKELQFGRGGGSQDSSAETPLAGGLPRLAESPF", "experiment": "cell-based or functional assay", "units": {"In vitro activity compared with native peptide (%) vs. Glucagon": "%"}}
{"binder": "B1", "In vitro activity compared with native peptide (%) vs. Glucagon": 12.7}
{"binder": "B2", "In vitro activity compared with native peptide (%) vs. Glucagon": 0.9}
{"binder": "B3", "In vitro activity compared with native peptide (%) vs. Glucagon": 5.4}
{"binder": "B4", "In vitro activity compared with native peptide (%) vs. Glucagon": 9.6}
{"binder": "B5", "In vitro activity compared with native peptide (%) vs. Glucagon": 0.1}
{"binder": "B6", "In vitro activity compared with native peptide (%) vs. Glucagon": 0}
{"binder": "B7", "In vitro activity compared with native peptide (%) vs. Glucagon": 12.2}
{"binder": "B8", "In vitro activity compared with native peptide (%) vs. Glucagon": 0.3}
{"binder": "B9", "In vitro activity compared with native peptide (%) vs. Glucagon": 8.8}
{"binder": "B10", "In vitro activity compared with native peptide (%) vs. Glucagon": "< 0.1"}
{"binder": "B11", "In vitro activity compared with native peptide (%) vs. Glucagon": 25.2}
{"binder": "B12", "In vitro activity compared with native peptide (%) vs. Glucagon": 1}
{"binder": "B13", "In vitro activity compared with native peptide (%) vs. Glucagon": "< 0.1"}
{"target": "human GLP-1 receptor (human, UniProt P43220 24-463)", "experiment": "cell-based or functional assay", "units": {"In vitro activity compared with native peptide (%) vs. GLP-1": "%"}}
{"binder": "B1", "In vitro activity compared with native peptide (%) vs. GLP-1": 90.1}
{"binder": "B2", "In vitro activity compared with native peptide (%) vs. GLP-1": 12.9}
{"binder": "B3", "In vitro activity compared with native peptide (%) vs. GLP-1": 22.6}
{"binder": "B4", "In vitro activity compared with native peptide (%) vs. GLP-1": 24.3}
{"binder": "B5", "In vitro activity compared with native peptide (%) vs. GLP-1": 14.2}
{"binder": "B6", "In vitro activity compared with native peptide (%) vs. GLP-1": 8.1}
{"binder": "B7", "In vitro activity compared with native peptide (%) vs. GLP-1": 38.7}
{"binder": "B8", "In vitro activity compared with native peptide (%) vs. GLP-1": 7.8}
{"binder": "B9", "In vitro activity compared with native peptide (%) vs. GLP-1": 27.9}
{"binder": "B10", "In vitro activity compared with native peptide (%) vs. GLP-1": 15.3}
{"binder": "B11", "In vitro activity compared with native peptide (%) vs. GLP-1": 95.4}
{"binder": "B12", "In vitro activity compared with native peptide (%) vs. GLP-1": 11.5}
{"binder": "B13", "In vitro activity compared with native peptide (%) vs. GLP-1": 5.2}
